assay: yeast display, Sf9 membrane polyspecificity reagent, FACS + sequencing; frameworks hold sequencing errors
How it was run: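 Galactose-induced (36–48 hours) yeast carrying a synthetic nanobody display library were exposed to 10% biotinylated, detergent-solubilized Sf9 membrane reagent at 4 °C for 1 hour. FACS followed streptavidin microbead enrichment, using low and high (top ~1%) gates for expression (anti-HA) and reagent binding (streptavidin). Colony PCR, MiSeq 2 × 250 sequencing and CDR-length filtering followed. Labels for polyreactivity reflect the gate of origin.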

Row | Sequence | polyreactivity (PSR sort gate)
1 | QVQLVESGGGLVQAGGSLRLSCAASGNIIIPYAMGWYRQAPGNEREFVAVMSTRGGSTYYADSVKGRFTISRDNAQNTVYLQMNSLKPEDTAVYYCAARYPYRYDYWGQGTQVTVSS | high polyreactivity
2 | QVQLVESGGGLVQAGGSLRLSCAASGSTFWYYGMGWYRQAPGKERELVAAITRGGSTYYADSVKGRFTISRDNAKNTVYLQMNSLKPEDTAVYYCAARPRYRAPYGYWGQGTQVTVSS | high polyreactivity
3 | QVQLVESGGGLVQAGGSLRLSCAASGTIFVPYAMGWYRQAPGKERELVAVITSGGSTYYADSVKGRFTISRDNAKNTVYLQMNSLNPEDTAVYYCIADLYYVWSTLSQFDYWGQGTHVTVSS | low polyreactivity
4 | QVQLVESGGGLVQAGGSLRLSCAASGRIFLDYVMGWYRQAPGKEREVVAAISWSGDRTDYADSVKGRFTISLDNAKNTVYLQMNSLKPEDTAVYYCATTWYFAYSDDYKFDYWGQGTQVTVSS | low polyreactivity
5 | QVQLVESGGCLVQAGGSLRLSCAASGRTFYFYTMGWYRQAPGKERQLVATIRWSAGSTYYADSVKGRFTISRDNAKNTVYLQMNSLKPEDTAVYYCNADPYVYSSWQYGYWGQGTQVTVSS | high polyreactivity
6 | QVQLVESGGGLVQEGGSLRLSCAASGLIFGAYALGWYRQAPGKERELVAAISGRGGSTYYADSVKGRFTISHDNAKNTVYLQMNSLKPEDNAVYYCAAPWRYTYYYWGQGTQVTVSS | high polyreactivity
7 | QVQLVESGGGLVQAGGSLRLSCAASGLIYSYNAMGWTRQAPGKERELVAAISRSGGTPYYADSVKGRFTISRDNANNTVYLQMNSLKPEDTEVYYCAAEIRFLSWEYDYWGQGTQVSVSS | high polyreactivity
8 | QDQLVESGGGLVQAGGSLRLSCAASGIIFAWYVMGWYRQAPGKERELVATITSSGGRTYYADSVKGRFTISRDNAKNTVYLQMNSLKPEDTAVYYCNAALTRAFKHSTGYDYWGQGTQVTVSS | low polyreactivity
9 | QVQLVESGGGLVQAGGSLRLSCAASGRIFVSNARGWYRQSPGKECELVAAISKSAARTAYADSVKGRFTISRDTAKNTVYLQMNSLKPEDTAVYYCNADRYRLYGESKGEGNYWGQGTQVTVSS | high polyreactivity
10 | QVQLVESGGGLVQAGGSLRLSCAASGPTFQIYAMGSYRQAPGNERELDAAIRWRGGTTYYADSVKGRFTISRDNAKNTVYLQMNSLTPEDTAVYYCAADYYWSPYYVYQFDYWGQGTQVTVSS | low polyreactivity
11 | QVQLVESGGGLVQAGGSLRLSCAASGIIFAYAMGWYRQAPGKERELVAAISGRDGSTYYADSVKGRFTISRDNAKNTVYLQMNSLKPEDTAVYYCNAVRGSYSWQMYYWGQGTQVTVSS | low polyreactivity
12 | QVQLVESGGGLVQAGGTLRLSCAASGSTFSVNAMGWYRQAPGKERELVASITTSGGSTNYADSVKGRFTISRDNAKNTVYLQMNSLKPEDTAVYYCNDDTPGSSPSDYNYWGQGTQVTVSS | low polyreactivity
13 | QVQIVESGGGLVQAVGSLRLSCAASGFIFMANAMGWYRQAPGKERELVAAITTGGRTNYADSVKGRFTISRDNAKNTVYLQMNSLKPEDTAVYYCAARYINGWVRSFYYWGQGTQVNVSS | high polyreactivity
14 | QVQLVESGGGLVQAGGSLRLSCAASGSIFWANAMGWYRQAPGNERELVAAISRSGTSTFYADSVKGRFTISRDNAKNTVYLQMNSLKPEDTAVYYCNAVGSGYRSWYVYWGQGTQVTVSS | high polyreactivity
15 | QVQLVESGGGLVQAGGSLRLSCAASGSNFGRYVMGWYRQAPGKERELVAAITRTGVRTYYADSVKGRFTISRDNANNTVYLQINSLKPEDTAVYYCNRYGARSNDYWGQGTQVTESS | low polyreactivity
16 | QVRLVESGGGLVQAGGSLRLSCAASGSILDINAMGWYRQAPGKERELVASISWTGGHTYYADSVKGRFTISRDNAKNTVYLQMNSLKPEDTAVYDCAATHQETVYYFLSIFDYWGQGTQVTVSS | low polyreactivity
17 | QVQLVESGGGLVQAGGSLRLSCAASGSIFQSYAMGWYRQAPGKERELVAAISYSGDGTFYADSVKGRFTISRDNAKNTVYLQMNSLKPEDTAVYYCAASSTGYGGSTYYYWGQGTQVTVSS | low polyreactivity
18 | QVQLVESGGGLVQAGGSLRLSCAASGSIFFYYAMGWYRQAPGKERELVAAINSDGSTNYADSVKGRFTISRDNAKNTVYLQMNSLKPEDTAVYYCNADTPYYQGEYNYWGQGTQVTVSS | low polyreactivity
19 | QVQLVESVGGLVQAGGSLRLSCAASGSIFVPYAMGWYRQAPGKEREFVAAIYSGGGNTYYADSVKGRFTISRDNAKNTVYLQMNSLIPEDTAVYYCAAAYFYSSWSRYDYWGQGTQVTVSS | high polyreactivity
20 | QVQLVESGGGLVQAGGILRLSCAASGRTFVLNAMGRYRQAPGKERELVAAITSGGSTYYADSVKGRFTISRDNAKNTVYLQMNMLKPEDTAVYYCAVTYKGDSSWPGDYWGQCTQVTVSS | low polyreactivity
21 | QVQLVESGGGLVQAGGSLRLSCAASGSIFGANGMGWYRQAPGKESELVAASTSGGSTTYADYVKGRFTISRDNAKNTVYLQINSLKPEDTAVYYCAADECTPYWPVDNFDYWGQGTQVTVSS | low polyreactivity

Row | Sequence | polyreactivity (PSR sort gate)
22 | QVQLVESGGGLVQAGGSLRLSCAASGSIFVYYALGWYRQAPGKERELVAAISSSGDTTYYADSVKGRFTISRDNAKNTVYLQMNSLKPEDTAVYYCNTRNDRASQRWVSREMDYWGQGTQVTVSS | high polyreactivity
23 | QVQLVESGGGLVQAGGSLRLSCAASGRTFTHYAMGWYRQAPGKERELVAAISGRGGNTYYADSVKGRFTISRDNAKNTVYLQMNSLKPEDTAVYYCNTAYVAKGYGYWGQGTQVTVSS | high polyreactivity
24 | QVQLVESGGGLVQAGGSLRLSCAASGSTFVANAMGWYIQAPGKERELVAAISFNRGGNTYYADSVKGRFTISRDNAKNTVYLQMNSLKPEDTAVYYCAAAQRELPTVRRNYWGQGTQVTVSS | high polyreactivity
25 | QVQLVESGGGLVQAGGSLRLSCAASGRIFRSYAMGWYRQAPGKERELVAAITKSGGGTYYADTVKGRFTISRDNAKNTVYLQMNSMKPEDTAVYYCGARGHCGYYYWGQGTQVTVSS | high polyreactivity
26 | QVHLVESGGAIVQAGGSLRLSCAASGYIFDRNAMAWYRQAPGKERELVAAITKRGGITYYADSVKGRFTISRDNAKNTVYLQMNSLKAEDTAVYYCNALARSSRYDYWGKGTQVTVSS | low polyreactivity
27 | QVQLVESGGGLVQAGGSLRLSCAASGFTFYAYAMGWYRQAPGKERELVAVISQSGTRTYYADSVKGRFTISRDNAKNTVYLQMNSLKPEDTAVYYCAADTYSPDREYGYWGQGTQVTVSS | high polyreactivity
28 | QVQLVESGGGLVQAGGSHRLSCAASARIFYLYAMGWYRQAPGKERELVAAISRSGSSTYYADSVKGRFTISRDNPKNTVYLEMNSLKPEDTAVYYFADLRYRPVHQDHYDYWGQGTQVTVSS | high polyreactivity
29 | QVQLVESGGVLLQGGGSLRLTWAASGGIFTDYTIRSYRQAPGKERELVADITWTGGSTYYPDSVKGRFTISRDNAKNTVYLQMNSLKPEDTAVYYCAADDYWVNLDYWGQGTQVTVSS | low polyreactivity
30 | QVQLVESGGGLVQAGGSLRLSCAASGRIFSHYDLGWYRQAPGKEREVVAAISSGGITYYADSVKGRFTISRDNAKNTVYLQRNSLKPEDTAVYYCAAVRRRGTTYDYWGQGTQVTVSS | high polyreactivity
31 | QLQLVESGGGLVQAGGSLRLSCAASRRIFDRNAMGWYRQAPGKERELVARIDPGDDTNYADSVKGRFTISRDNAKNTVSLQMNSLKPEDSAVYYCATDPDYVLYRTAYYEYDYWGLGTQVTVSS | low polyreactivity
32 | QVQLVESGGGLVQVGGSLRLSCAASGRTVWWYAMGWYRQAPGKERELVAAISRGSTNYADSVKGRFTISRDNAKNTVYLQMNSLKPEDTAVYYCNAVSLYQSHDYDYWGQGTQVTVSS | low polyreactivity
33 | QVQLVESGGGLVQAGGSLRLSCAASGSIFFRYALAWYRQAPGKERELVASITSGGSTYYADSVKGRFTISRDNAKNTVYLQMNSLKPEDTAVYYCNALPYRYRRYDYWGQGTQVTVSS | low polyreactivity
34 | QVQLVESGGGLVQAGGSLRLSCAASGRTIQYYAMGWYRQAPGKERELVAAITRSGGRTYYADSVKGRFTISRDNAKNTVYLQMNSLKPEDTAVYYCARVSSSVHVDYDYWGQGTQVTVSS | high polyreactivity
35 | QVQLVESGGGLVQAGGSLRLSCAASGSTFVRYVMGWYRQAPGKERELVAAISEGGGSTYYADSVKGRFTISRDNAKNTVYLQMNSLKPEDTAVYYCAAGRSNSYSPRRRVTYGYNYWGQGTQVTVSS | high polyreactivity
36 | QDHLVESGGCLVQAGGSLRLSCSASGRIFRYYAMGWYRHAPGKERELVAAIRNGGSTYYADSVKGRFTISRDNAKNTVYLQMNSLKPEDTAVYYCAAGYNYVSHRCGDWGQGSQVTVSS | high polyreactivity
37 | QVQLVESGGGLVQAGGSLRLSCAASGSIYVYNAMGWYRQAPGKERELVAAIDTVGSTNYADSVKGRFTISRDNAKNTVYLQMNSLKPEDTAVYYCAVVTPYWSFYDQVIPSNYWGEGTQVTVSS | low polyreactivity
38 | QVQLVESGGGIVQAGGSLLLSCAASGRIFEKYALGWYRQAPGKDRELVAAISYSGGSTYYADSVKGSFTSSRDKAKNTVYFQMNSLKPEDTAVYYCARYSRTQAYDYWGQGTQVTVSS | high polyreactivity
39 | QVQLVESGGGLVQAGGSLRLSCAASGFIFAAYAKGWYRQAPGKERELVAAISGSGGRTYYADSVKGRFTISRDNAKYTVYLQMNSLKPEDTAVYYCGTPPGYPPGSIIWSRFGFWGQGTQVTVSS | high polyreactivity
40 | QVQLVESGGGLVQAGGSLRLSCAASGSIFIGNTMGWYRQAPGKERELVATIRRSGSRTYYADSVKGRFTISRDNAKNTVYLQLNSLKPEDTAVYYCAADRLRSSGYKTIYDYWGQGTQVTVSS | low polyreactivity
41 | QVQLVESGGGLVQAGGSLRLSCAASGRTFVPYAMGWYRQAPGKERELVAAITWSGGRTRYADSVKGRFTISRDNAKNTVYLQMNSLKPEDTAVYYCARYYWLYSSSYDYWGQGTQVTVSS | high polyreactivity
